A protein production outcome set (Wang et al. 2014)

test: label from the status in PepcDB records

Sequence | protein production
MSVNDQITHIGKTLSTTASAFLNYQKSNSNTQDVLTNNGPYKNLLSNTVNNASSTSYFYKRTEHGRFVKNASNTFEDIYSKTRRGDVFRNKFTDNKTCFRMLTYISDDLLNEIPTKEGLKSDADGKLLTEGGENENLRKNASKKETSLFQGFKSYLPIAELAIENTERLNYDTNGTSGTVGAKDVMSKTNERDEIHTELPNFQDSFLIPPGVETKKISSSYSPSALKSFSQTLVNSLEFLNIQKNSTLSEIRDIEVEVENLRQKKEKLLGKIANIEQNQLLLEDNLKQIDDRLDFLEEYGLEVIEANSDENAEDDGMSERKALKNDAIRNEGVTTESISSEASNLPPRRRQQLRDDNSLNRLGAFYSKSKKRHRKSFPTFQQLYEPGTKIGSIMSTHDDFLTCLDFDAPFGTLCTAGYLDHTVKIWDLSKQNKIGELAGHLATINCMQINRDYGTLVTGGRDAALKLWNLNLAQQLYQETQNLTSPTNHIDSPCVHTFEAHTDEVTALSLDPSFLVSGSQDRTIRQWDLRSGKCLQTIDLSFANVLTTSTNVDLSKSTLLTQRNERPSIGALQSFDAALATGTKDGVVRLWDLRSGKVIRTLKGHTDAITSLKFDSACLVTGSYDRTVRIWDLRTGLLNKFHAYSAPVLSLDLFQENAAVVVADEPSVQIYDSEKDESWSCVEQGNETSVSTVKYKENYMVEGRENGDVNIWAV | failed
MSVNESVNRIVGGSGVILAGTFLGMLLDILIKKVMTSHLSPADFGTYSLALTVISITGAVATLGLNEGVPRYIAFFRGRQEEQKVHELIISAILMGLIAGLLAILVSPSLFESLAGKGFDAQGQILSVVKILVFAIPFTILLNLTVAIYRGFDRTNVNMYFYNIIRPLSLLGFASAAVYFGASLKGVVFADLISMVFTFSIMSVYFVKKPPVKPEWKIKFSEPTRQLIRYSFPLLITATLLNLMSWIDTIMLGYFRPAEVVGVYNAVYPIVGFLSLVIASMGYVYVPVASKLWGLNKTQPVGSIYAVMTKWCFLLTFPIFALIFVYPEFLITKLYGAEYVGGTTALRILAMGFIANSYFGFNYHTLLASGDSDFLMRCSVASAGINAVVNFMLIPEYGMIGAAIGTAVSYASIEVSMTLRAWRKQKMHPFTSMYRKLTLVCVVMTATMLAAKIIIPLSGAAWEYAVFIIVYFAVIHYAKILDKDEISMVDEIRKNIRQNVSVHVPQAIKTLVP | failed
MSVNLGSLPRQRSLLSRLRDLWPLWLFLALLASALHYIVRYWPQIVLQSAIWQKSLHQQMSHLLQMVEQQPHQAGLSLMMFSLVYGVLHAVGPGHGKVVIMTYLATHPSKLKSSLKLTLAASLVQGLMAIALVTVVLGILQLSSRTLHNSSFWMEKGSFVLVAGLGLLLCFRALKQLYIVLVRQPKPATILRVIPLPVTPLNVAAHGRMTLSPIYAPSHSLHQHDVDCGCGHRHLPSNEELERGSSWHTRLMIVLAMGMRPCSGAIMVLLFSKVIGVYLWGVASALVMAAGTAITISALAVLVFYCRRVIERLGANRASPVWQRATFSLLSFAGGMILVGSGILLYLSAQPAMMGGIRPFSG | failed
MSVPDNVYLIGTMNTADRSLAGLDIALRRRFDFVEMAPRPDKLTGVKVAEIDISAVLETMNRRIEVLLDREHRLGHAYFMSLENSNDLSRLSNIFRQQIIPLLQEYFFEDWQRIAWILNDHRKDERFRFIVPAPYSVDSLFGDTGQVAQDSKAWRMNEEAFHKPLEHHHHHH | failed
MSVSAELSQTIINNQVTSVLILDESLMIRYANPAAEQLFSQSAKRLMHQSLNHLVQHSSLDLQLLTQPLQSGQSITDSDVTLVIDSKPLMLEVTVSPISWHKELLLLAEMRTIG | failed
MSVSGPCLSCDTPGCTMQAHSDSDESFFERAWAVVAQIPVGRVTTYGDIAAHLGRRGAARIVGWALKDAVGGDLPCHRVVNRNGVLTGRRHFETPHVMAERLRSEGVTFVAEDQVDLDAHRWRPGEAE | failed
MSVSVKGNEQLTSLLNDWYRAMLSQQVIKATNLKKKIDEKINKLSIEPDQEHQDQNLLLYYSLLEFRYKVLTDSLGIQQNSFDTISDYDMPTDQFLQFYYHFFKSIHSTFISNYTEAEEHYKLAEKILVAIPDEIEHAEFYYRIATFYHHTYNNLASIEYANKSRAIFSKYEGYEVKTAFCNSLLGGCCIYLKQYEQAEEYLHCAIDLLQKNREEDSLLYVKNTMGWLYSDQSMSTLAIRHLSEVTEKIPTHFKAIFLQAKEHYKLGEQSTASQLIDKGLQICREIHNEEYTHHFSILKKLNENIPLEELEKIIQEGILYFEEEELWEYVVEYAELFATKCRQLENHQKVSDYFHICYQARQKSIAKGVLK | failed
MSVYKLTDLRDNSTNWKINVKILSIWNHPPNSHGEIMTMILHDDKNNRVDATIPQGNYHNPFRPFLKPGTWIHISDFRVIVPQSRVRYSSFCFHIKFIWETSVYPLPELVKRDFFDFIFPIDLKYPCLEDWDYVTDAMSEVTNISAIKKFPFVCRQGETDYESRYVSFELLDNMGEKMKCYAVGRCCELFVINFSKCISSASYNYQPIVAIVRFWRIAEIEGENVLKSEFGCSRIYLNPTNFPEIDIQSYIRGFEDYDELPENPRMEVIEEN | failed
MSWACRPATAQRQAGRNGGAPTVQSRVPRRASPRTHHPFVRLVATTLRPVRPYSDLLQHRLLHPMHRFVIVGLGNFGASVAEALYSHGHDVIAVDVDEQAVDDIAPHCSRAAVGDGREAATLEEIGAEAADAAVVSTGDDITASILATMALQDLGVDVVYVKVISDNHARIMRQLGATEAVFPERDSAFNLASRISEKGVVNYVRMGRNLSVQELVVPEEWRGHTLRELDVRAEYGVSVVGIHETTIDDMIVPPNPDDTLRHTDTLILAGTDEAIEKVADLASATAEEAE | failed
MSWENPGPPKRADARRNYDRIIEAAAAEVARHGADASLEEIARRAGVGSATLHRHFPSRWGLLQAVFQERVAQLCDEARSLAAEHPPATALTRWLTSLAVFGAVTRGAARSLLPATGTNTGAALDSRCEQLLTEAGADLLARAQEDGTVRDDVTALELLSLANAVSLAAEHTPDAAHHATRLMGIALGGLGAPGPRPQG | not failed
MSWFDDLFSNKENSDEELLRRKSKRRNGDLTQNKDDSLLPENNDIYDRPRGKFRFPIDVGQDENYEEAIYRDSNDDIGSYRPHSSNDHSSYDSFDYDGHTNQSNNYAKYDSSEDSRRRRRRNHINQDDTGIPSIKSRSPKSSNKYIDTRESQRFNKHQNNYSSTNVSNYSKANSNHQSRVKLQSERFKSNYHLSSEPTYHRSSFKTSEVPSAIFGTKKRRPIENGVIPPVKDDEDSKESITKYSSSTVEHVPHESNHAIADNSNKEDTKRSSQLDSSITIENESTIESSSNTSNNNERTPNYSKRDNTVNIENIYASQIVEEIRKERERKVQQKRKFKEALQNKRQQTDEEDSIQRAIDEMYAKQAEQYTGESSLNQGDNVSNKSNESEIDKSKHSYHSKDKSLVDEHNGLVQNQTDEQTNSDNVDNQTEVSNESHEPYNYEEIDLNQVSSVQQVRQDDVQVKDVLEEQSSKINNNKVESYSNEKFDDYLEDTNSHEEMLHDDDLHEQVMDDDENEGISNKTTDENNDEKIDDANYREINESESLMQDKANDLKFNDEVNNSENQQNSSENNINNAVRNAVSSDIEYATNEDEENDERLAQDTNKEDQKLSQSEDIQHESLNNEDVSLTSNKTDDSEHLEKDSLNEDKKAEPSFNKTNKAPQKMSIKPGSKPFNVVMTPSDKKRVMDAKKNSVSRNKVNVPELKPETKKEAQDEKMNAEFDNHLNESQLNSDESSDFNVASLEYNESSEHSVEKDNIINDENTRENEHQDVDNSQNNDMPKGNQFSKVQNSNNQNDNKHDINEFVSKEGYSEVTSTKNHKDGDDANHKAPIRRGPNIKLPSLDLLEDHEEHEIDESWIEEKKQELNDAFYYFNVPAEVQNVTEGPSVTRFELAVEKGVKVSRITALQDDIKMALAAKDIRIEAPIPGTSLVGIEVPNLNPTKVNLKSILESPKFKNAESKLTVAMGNRINNEPLLMDIAKTPHALIAGATGSGKSVCINSILMSLLYKNHPEELRLLLIDPKMVELAPYNDLPHLVSPVITDVKAATQSLKWAVDEMEKRYKLFAQFHVRNITAFNKKAPYEQRMPKIVIVIDELADLMMMAPQEVEQSIARIAQKARACGIHMLVATQRPSVNVITGLIKANIPTRIAFMVSSSVDSRTILDSGGAERLLGYGDMLYLGSGMNKPIRVQGTFVSDDEIDDVVDFIKDQREPDYLFEEKELLKKNQTQAQDELFDDVCEFMVKEGHISTSLIQRHFQIGYNRAARIVDQLEQLDYISGANGSKPRDVFITEADLKKE | failed
MSYAGDITPLQAWEMLSDNPRAVLVDVRCEAEWRFVGVPDLSSLGREVVYVEWATSDGTHNDNFLAELRDRIPADADQHERPVIFLCRSGNRSIGAAEVATEAGITPAYNVLDGFEGHLDAEGHRGATGWRAVGLPWRQG | not failed
MSYFYKHCLKFSLVGLLGLLSVQLDARSFVDGDLDIQKFSYEDSLLKKGDPNGVHKVQVRDYKGKMQEAEIHSEIRIALKPGVKKEVKKGKIYSAQINDGMCYAFRMLQTGDNTTGLDSKEFPKQSREKKGRVITLIGKGEVPYLILETDCQVGDIAKISLVGNFDGTGFLTEYKFKDAKPIY | failed
MSYGLIIVLMIILGIGLWHTKKYHRAVVNQVAHVWITKNAFEHTALGMAIVSPDCRFLKVNRAYGEITGYTRPELLKMAVKELTHPEDQEKDTPYLQEVFAGNIHSFTTVKRYIHKNGSTIWVRSTISAVRTERGNLKYFVAQIQDMTIAKNAEDELRKSRDNAEVLARTDYLTKTLNRRAFIERLQEELERTKRTQEGFAMILVDIDYFKKVNDQFGHLAGDYVLQKFADCLSNNVRPYDFIGRYGGEEFIICLPDTDVEQAALVAERMRESVEALEVDYLHAQIKVTGSFGVAVYDSHSSDTLDELIEKADGAMYVAKNHKNTVYQWVS | failed
MSYLDNVRVFVRVVELGTLSAAGRDQRVTPAVASNRIKELERHMGVRLFNRTTRKLTPTEHGRVFYEGAVKILEAVNEAESAIADLSRNPKGALKITAPLGIGRRLIAPGIPEFHDRYPDIEVRLRLSDHNVDILAEGVDIAFKLGILEDSNLRMRGIMNCDRVLCGSPRYFERRGIPSSPDDLLSHSHDCLLLRYPGSKEYYWTLQTPDGVRKFEVGGPYDSDDGDVLTQWALDGRGIVNKPLFEVKQHIDEGLLVPVLEETPPLGAQLAAIYPHKRFQDPKVRLMIDFMAERCQRLIGKMLAESAEVQERSSA | failed
MSYLLRREEVVDVAGLQAMLEETPGKAAQAILAAAGQGVVEAQLLLGQILLDGRGIQQDATVARRWFGIAAQGGSAMAHNMLGRCLEHGWGGEVNLVQAAVHYARAADSGLDWGLYNLGNLLATGRGVPANQVQALMCYEKAAQLGHAKSMNLYGRYLEQGIATAPSPARAVRWYRRSAEAGDFRGMFSLALVLVERGQLAEAGQWLEQARVAGNMNFLRAALVTLQDAGPVLMAFAARYAEEIDRREEAGTGEHT | failed
MSYSWKKILIKPESTVVDALRVIDNEALRIALVVNDEQQLLGVVTDGDIRRGLLNNLPLETPVVDIMSRSPITASVNTAKEQLVKLMESKSILAVPLMEENKVVGLETLHHLFEEKTYHNPVFIMAGGFGTRLRPLTDTCPKPMLKIGNKPILETVIRSFIKAGFVNFYISTHYMPEQIQNHFGDGSELGVKISYVHEDSPLGTGGALGLLPDDLPQDLPLIMMNGDVLTKVDFERLLDFHTENQADATMCVREYDYQIPYGVINGKGNKITSMVEKPIQRFFVNAGIYVVSPSVIQSVPKNHHIDMPTLLEQHMNERDNILMFPIHEYWLDIGRMDDFNRAQADIHTLGLDLEHHHHHH | failed
